The supplement of paper PMC10567573

B1: SPOPL (parent)
chain: YTGRAPNLDKMADNLLAAADKYAL

Variants of: B1
Assay: protein stability index of a GFP-peptide fusion (GPS, HEK-293T) (PSI 1-6); higher = more stable
Settings: c terminus: a fixed tail appended
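Further: lentivirally expressed fusions sorted by FACS into six bins by GFP to DsRed ratio, PSI derived from sequencing read proportions per bin multiplied by bin number.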

Protein stability index, by site and new letter:
Y22: W 1.67, R 3.05, I 2.22, T 2.72, M 1.93, K 3.07, H 2.18, Q 2.17, S 3.66, D 2.03, P 2.73, G 3.2, E 3.04, V 2.27, N 3.3
D20: P 1.41, C 1.99, T 2.34, E 1.61, I 1.71, M 2.22, G 2.29, V 3.92, N 1.3, K 1.4, H 2.14, S 1.48, Q 1.53
D9: C 1.99, R 1.2, E 2.24, Q 2.84, W 2.67, I 1.37, S 1.78, M 2.23, F 3.79, N 1.65, K 2.34, P 2.36, T 1.85, V 3.1
N7: W 1.84, I 1.81, F 3.09, K 1.68, Y 1.27, H 1.68, V 1.7, C 1.86, A 1.98, S 1.65
P6: C 1.65, S 2.16, A 1.88, W 5, M 2.2, F 2.09, N 2.49, E 2.82, Y 1.75, K 1.43, R 2.44
K21: S 1.92, A 2.04, L 2.02, Q 3.78, V 2.53, M 1.65, N 2.11, C 1.88, Y 1.13, W 2.02, P 2.48, G 1.81, H 1.89, E 3.6
A5: F 2.31, W 4.42, K 2.01, I 1.58, N 3, R 1.74, H 1.47, G 1.93, C 1.87, L 1.77, D 3.19, Y 1.41, E 3.58, Q 2.48
K10: H 1.97, M 2.41, Y 1.61, L 1.89, D 1.91, T 1.75, V 1.75, C 1.35, I 1.49, A 1.81, R 1.43, E 2.23, F 1.68, Q 1.75, S 2.83
D13: G 3.29, F 1.87, A 1.34, I 2.42, V 1.73, Q 1.91, H 1.75, P 2.2, K 1.68, T 1.91, L 1.81, C 2.17, R 2.66
G3: Q 2.7, Y 2.82, P 2.14, C 1.64, M 2.68, V 2.62, I 1.86, D 3.99, W 2.88, K 2.18, N 2.83, F 1.93, E 2.94
A17: K 2.28, C 2.28, M 1.4, L 2.34, Y 1.62, I 1.58, D 2.7, V 2, R 2.05, Q 2.33, P 1.95, N 2.44, T 2.55, F 2.04, S 2.27
A19: K 1.64, E 2.33, G 2.23, N 2.49, H 2.24, D 2.76, Q 2.77, S 1.65, P 2.7, F 1.5, W 1.37, T 1.99, I 2.76
A23: N 2.3, K 2.37, Q 2.4, T 2.71, C 2.57, D 2.45, L 1.67
